According to patent publication US20240294622A1 (SUZHOU TRANSCENTA THERAPEUTICS, published 2024):
Each block holds one binder with its values, some of them ahead of it.

B2: HGREM1-His (ACRO) (ligand, not shown: small tags and cut ends)
chain: KKKGSQGAIPPPDKAQHNDSEQTQSPQQPGSRNRGRGQGRGTAMPGEEVLESSQEALHVTERKYLKRDWCKTQPLKQTIHEEGCNSRTIINRFCYGQCNSFYIPRHIRKEEGSFQSCSFCKPKKFTTMMVTLNCPELQPPTKKKRVTRVKQCRCISIDLD
notes: Lys25-Asp184 of NP_037504 with C-terminal polyhistidine tag (ACRO GR1-H52H3); they are put here; also called hGREM1 (ACRO); human gremlin (ACRO)

How the values were obtained:
[1] = target: T1, hGREM1 (source and construct not stated) (human, UniProt O60565 25-184); experiment: ELISA on hGREM1
T1 construct: also called Gremlin; gremlin
T1 sequence: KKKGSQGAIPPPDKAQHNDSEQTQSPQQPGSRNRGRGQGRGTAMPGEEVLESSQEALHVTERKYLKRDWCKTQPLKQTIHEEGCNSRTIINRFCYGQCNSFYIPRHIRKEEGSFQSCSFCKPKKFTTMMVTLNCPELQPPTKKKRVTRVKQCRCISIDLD

HGREM1-His (ACRO) [2] = target: B2; experiment: ELISA: antibody coated, Gremlin-his titrated, anti-his-HRP; the concentration is that of Gremlin-his
Procedure: (§1) Using a similar ELISA protocol mentioned above, binding of chimeric antibody 14E3 to XM5 or Gremlin were tested. […] The secondary antibody anti-his-HRP was used for detection.

hGREM1 (Peprotech) [3] = target: T2, hGREM1 (Peprotech) (human, UniProt O60565 25-184); experiment: SPR Biacore T200, 25 C, hGREM1 (Peprotech) immobilized, antibody 12.5-400 nM
T2 construct: also called biotin-hGremlin
T2 sequence: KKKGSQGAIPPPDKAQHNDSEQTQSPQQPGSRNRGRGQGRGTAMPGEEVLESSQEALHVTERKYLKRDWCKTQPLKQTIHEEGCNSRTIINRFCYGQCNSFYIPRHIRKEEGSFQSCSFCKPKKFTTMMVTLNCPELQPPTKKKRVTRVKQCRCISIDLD
Procedure: (§2) HGREM1 (Peprotech) was immobilized on the Biacore sensor chip. Kinetic experiments were carried out using HBS-EP+ as both the running buffer and the sample buffer. […] Antibody-antigen association was monitored for 180 s while dissociation in buffer was monitored for 360 s. Kinetic analysis was performed using Biacore T200 evaluation software to determine Ka and Kd values. KD was calculated from the experimentally determined Ka and Kd values as KD=Kd/Ka.

HGREM1-His (ACRO) [4] = target: B2; experiment: ELISA, binding to hGremlin-his
XM5-his = target: T3, XM5-his (human (hGREM1 with residues 123-143 …)); experiment: ELISA: antibody coated, XM5-his supernatant titrated (axis: supernatant percentage, %), anti-his-HRP
T3 construct: Unpurified supernatant used; also called gremlin-DAN fusion protein XM5; chimeric hGREM1
T3 chain: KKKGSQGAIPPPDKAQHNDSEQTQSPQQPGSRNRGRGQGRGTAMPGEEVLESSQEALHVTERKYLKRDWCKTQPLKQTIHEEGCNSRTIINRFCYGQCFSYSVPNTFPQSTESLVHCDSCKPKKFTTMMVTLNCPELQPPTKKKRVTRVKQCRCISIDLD
Procedure: as §1

hGREM1 (Peprotech) [5] = target: T2, hGREM1 (Peprotech); experiment: Biacore at 25 °C, Gremlin (Peprotech) on the chip, antibody as analyte
Procedure: as §2

recombinant human BMP2 = target: T4, recombinant human BMP2 (human, UniProt P12643 283-396); experiment: ELISA: coated BMP2, gremlin titrated (sheet title: BMP2/4/7 binding to human gremlin-his)
T4 construct: also called hBMP2

recombinant human BMP4 = target: T5, recombinant human BMP4 (human, UniProt P12644 293-408, limits assumed); experiment: ELISA: coated BMP4, gremlin titrated (sheet title: BMP2/4/7 binding to human gremlin-his)
T5 construct: also called hBMP4
T5 sequence (looked up): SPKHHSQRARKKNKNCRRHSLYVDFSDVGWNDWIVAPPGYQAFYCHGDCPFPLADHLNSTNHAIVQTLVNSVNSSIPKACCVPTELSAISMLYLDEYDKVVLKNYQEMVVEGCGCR
Procedure: Gremlin is known to be able to bind to BMP proteins and is validated by the present disclosure. Briefly, gremlin-Fc was tested for its binding ability to BMP 2/4/7 immobilized on plate. Briefly, plates were coated with […] of recombinant human BMP2, BMP4) (hBMP4, Peprotech) or human BMP7 (R&D) overnight and wild-type gremlin-1 was added to coated plates and allowed to incubate for an additional hour at RT. The plates were then washed and plate bound biotin-hGremlin was detected with neutravidin conjugated with HRP (thermo). Plates were then developed with a TMB solution and stopped by adding stop solution. The plates were read on a plate reader at 450 nm.

HGREM1-His (ACRO) [6] = target: B2; experiment: blocking ELISA: coated BMP2, chimeric antibody pre-incubated with gremlin, lower panel (Elisa blocking gremlin binding to BMP2); blocked ligand BMP2
Procedure: (§3) In addition, the ability of serial dilutions of antibodies provided herein to block Gremlin binding to human BMP2/4/7 was also examined via ELISA. Plates were coated with recombinant human BMP2/4/7 (0.5 μg/ml) overnight and then serial dilutions of antibodies were incubated with 1 μg/ml of human Gremlin-his modified for 1 h at RT before this complex was added to coated plates and allowed to incubate for an additional hour at RT. The plates were then washed and added with anti-his HRP (GenScript). Plates were then developed with a TMB solution and stopped by adding stop solution. The plates were read on a plate reader at 450 nm. […] The chimeric anti-gremlin 1 antibodies (69H5-chi) and chimeric anti-gremlin 1 antibodies (22F1-chi) also can inhibit the binding of gremlin to BMP2 and BMP4 (see, FIG. 3E and FIG. 3F). The chimeric anti-gremlin 1 antibodies (56C11-chi) can inhibit the binding of gremlin to BMP2 (see, FIG. 3E).

HGREM1-His (ACRO) [7] = target: B2; experiment: blocking ELISA: coated BMP4, chimeric antibody pre-incubated with gremlin, lower panel; blocked ligand BMP4
Procedure: as §3

HGREM1-His (ACRO) [8] = target: B2; experiment: competition ELISA, Gremlin-his 0.25 ug/ml binding to coated FGFR1-Fc; partial blocking
Procedure: Next, 0.25 μg/ml of gremlin was selected to test the blocking activity. The ability of antibodies to block Gremlin binding to human FGFR1-Fc was examined via ELISA. Plates were coated with recombinant FGFR1-Fc (2 μg/ml) overnight and then serial dilutions of antibodies were incubated with 0.25 μg/ml of human Gremlin-his modified for 1 h at RT before this complex was added to coated plates and allowed to incubate for an additional hour at RT. The plates were then washed and added with anti-his HRP (GenScript). Plates were then developed with a TMB solution and stopped by adding stop solution. The plates were read on a plate reader at 450 nm. […] Humanized anti-GREM1 antibodies provided herein (e.g., Hu14E3, Hu22F1) are expected to show the similar technical effect as their chimeric counterparts in blocking the binding of hGREM1 to FGFR1.

Mouse Gremlin-His (R&D) = target: T6, Mouse Gremlin-His (R&D) (mouse, UniProt O70326 25-184); experiment: ELISA on coated Mouse Gremlin-his, anti-mouse IgG-HRP
T6 construct: Lys25-Asp184 with 10xHis, R&D 956-GR; also called mouse gremlin (R&D); mGREM1
T6 sequence: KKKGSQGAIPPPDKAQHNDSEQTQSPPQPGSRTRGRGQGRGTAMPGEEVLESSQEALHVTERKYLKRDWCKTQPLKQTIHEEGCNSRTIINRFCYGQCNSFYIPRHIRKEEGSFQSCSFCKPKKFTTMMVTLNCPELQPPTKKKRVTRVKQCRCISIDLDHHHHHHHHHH
Procedure: (§4) Clear polystyrene plates (BEAVER) were coated with 100 μl/well of a […] hGREM1 (ACRO) and mouse gremlin (R&D) in high pH coating buffer overnight at 4° C. Then the plates were washed once on an automatic plate washer using PBS+0.1% Tween 20 (Sigma). 100 μl of block solution consisting of PBS+1% BSA+1% normal goat serum+0.5% Tween 20 (Sigma) was added to each well and incubated at room temperature for 2 hours. Then 100 μl of antibodies in antibody dilution buffer containing PBS+1% BSA+1% normal goat serum+0.01% Tween 20 starting from 2 μg/ml and then serial dilutions were added to each well of the plate and incubated for 1 hours at room temperature. Afterward the plates were washed three times with 200 μl of PBS+0.1% Tween20 followed by adding 100 μl/well 1:10000 Goat anti mouse IgG-HRP (abcam), and incubate for 1 hour at room temperature. They were then washed 3× with PBS+0.1% Tween20. Finally, 100 µl/well of TMB (Pierce) was added to each well and after several minutes add 50 μl of stop solution to each well. The plates were read on a Multiscan FC microplate reader (Thermo Scientific) at […].

HGREM1-His (ACRO) [9] = target: B2; experiment: competition ELISA on captured human gremlin (Acro,0.5ug/ml), lower panel: hybridoma 22F1 titrated against a fixed amount of chimeric 22F1-C, bound chimeric antibody detected
Procedure: (§5) Epitope binning of anti-gremlin hybridoma antibodies were performed using a competition ELISA assay. Clear polystyrene plates (BEAVER) were coated with 100 μl/well of a 0.5 μg/ml hGREM1 (ACRO) in high pH coating buffer overnight at 4° C. Then the plates were washed once on an automatic plate washer using PBS+0.1% Tween 20 (Sigma). 100 μl of block solution consisting of PBS+1% BSA+1% normal goat serum+0.05% Tween 20 (Sigma) was added to each well and incubated at room temperature for 2 hours. Then 50 μl/well of 20 μg/ml saturated antibodies (hybridoma antibodies) in antibody dilution buffer (PBS+1% BSA+1% normal goat serum+0.01% Tween 20) were then added to each well of the plate and incubate for 1 hour. Then add 50 μl/well of 40 ng/ml competitive antibodies (chimeric antibodies, e.g., 14E3-C, 22F1-C, 56C11-C, and 69H5-C) to each well of the plate and incubate for another 1 hour at room temperature. […] The plates were read on a plate reader at 450 nm. The failure of the second antibody to bind in the presence of saturating quantities of the first antibody indicates the two antibodies were in the same epitope bin; the success of the second antibody to bind in the presence of the saturating quantities of the first antibody indicates the two antibodies were in different epitope bins. […]
(§6) The amount of chimeric antibody bound to gremlin were determined.

HGREM1-His (ACRO) [10] = target: B2; experiment: ELISA, coated hGREM1 (ACRO)
Procedure: as §4

HGREM1-His (ACRO) [11] = target: B2; experiment: competition ELISA on captured human gremlin (Acro,0.5ug/ml), lower panel: hybridoma 22F1 titrated against a fixed amount of chimeric 14E3-C, bound chimeric antibody detected
Procedure: as §5, §6

T4 sequence (P12643 283-396 limits assumed): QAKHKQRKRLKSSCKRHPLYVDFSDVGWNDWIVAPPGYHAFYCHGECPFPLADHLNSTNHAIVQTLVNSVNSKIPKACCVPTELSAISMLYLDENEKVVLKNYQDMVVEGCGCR

B1: 14E3-C (chimeric antibody of 14E3) (antibody, V domains shown)
VH: QIQLVQSGPELKKPGETVKISCKTSGSTFTTYGMAWMKQAPGKGLTWMGWINTLSGEPTYADDFKGRFAFSLKTSANTAYLQINNLKNEDAATYFCAREPMDYWGQGTSVIVSS
VL: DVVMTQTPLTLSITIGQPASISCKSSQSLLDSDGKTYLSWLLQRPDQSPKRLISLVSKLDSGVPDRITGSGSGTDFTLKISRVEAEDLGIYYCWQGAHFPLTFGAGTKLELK
notes: also called chimeric 14E3; 14E3 hIgG1
- EC50 [1]: 0.00524 µg/mL
- EC50 (read off the curve) (HGREM1-His (ACRO) [2]): ~0.01 µg/mL
- Kd (hGREM1 (Peprotech) [3]): 17.7 nM
- EC50 (HGREM1-His (ACRO) [4]): 0.0068 µg/mL
- binding result (XM5-his): binds
- koff (hGREM1 (Peprotech) [5]): 0.000882 s⁻¹
- kon (hGREM1 (Peprotech) [5]): 49900 M⁻¹ s⁻¹

Binder: B2
- EC50 (read off the curve) (recombinant human BMP2): ~0.2 µg/mL
- EC50 (read off the curve) (recombinant human BMP4): ~0.3 µg/mL

The remaining lines, values ahead:

- IC50 (read off the curve) (HGREM1-His (ACRO) [6]): ~2 nM
- Kd (hGREM1 (Peprotech) [3]): 27.3 nM
- IC50 (read off the curve) (HGREM1-His (ACRO) [7]): ~4 nM
- IC50 (HGREM1-His (ACRO) [8]): 5.12 nM
- koff (hGREM1 (Peprotech) [5]): 0.000556 s⁻¹
- kon (hGREM1 (Peprotech) [5]): 20400 M⁻¹ s⁻¹
B3: 22F1-C (chimeric antibody 22F1) (antibody, human IgG1, V domains shown)
VH: EAQLQQSGPELVKPGASVKISCKASGYSFTDYYMNWLKQSHGKSLEWIGDINPKDGDSGYSHKFKGKATLTVDKSSSTAYMELRSLTSEDSAVYYCASGFTTVVARGDYWGQGTTLTVSS
VL: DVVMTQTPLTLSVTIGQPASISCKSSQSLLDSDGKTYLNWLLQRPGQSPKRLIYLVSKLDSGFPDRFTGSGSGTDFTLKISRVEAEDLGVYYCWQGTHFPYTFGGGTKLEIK
notes: also called 22F1-chi; chimeric anti-gremlin1 antibody 22F1

- binding result (Mouse Gremlin-His (R&D)): no binding
- IC50 (read off the curve) (HGREM1-His (ACRO) [9]): ~0.8 µg/mL
- EC50 (HGREM1-His (ACRO) [10]): 0.0141 µg/mL
- IC50 (read off the curve) (HGREM1-His (ACRO) [11]): ~0.8 µg/mL
B4: 22F1 (antibody, V domains shown)
VH: EAQLQQSGPELVKPGASVKISCKASGYSFTDYYMNWLKQSHGKSLEWIGDINPKDGDSGYSHKFKGKATLTVDKSSSTAYMELRSLTSEDSAVYYCASGFTTVVARGDYWGQGTTLTVSS
VL: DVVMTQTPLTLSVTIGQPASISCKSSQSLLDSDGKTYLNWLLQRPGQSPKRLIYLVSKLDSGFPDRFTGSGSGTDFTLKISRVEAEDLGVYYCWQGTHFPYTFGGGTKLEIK
notes: mouse hybridoma antibody; also called hybridoma 22F1
